Measured values reported in patent US20110182926A1, “[…]” (priority 2008, published 2011).

Assays:
HLA-A*0201 [1] = molecular target: T1, HLA-A*0201 (Homo sapiens, UniProt P04439, D140Y/D185E/D98H/E176V/E277Q/G131W/G231S/I119V/I121R/I166T/I218V/L300P/L318F/N151K/N90K/P208A/P217A/Q86G/Q94H/R138H/R169H/T345S); experiment: iTopia Epitope Discovery System binding affinity; conditions: hTERT analogs; FIG. 8
Description: (§1) Candidate epitopes and analogs are analyzed for the ability to bind to HLA-A*0201in-vitro using iTopia™ Epitope Discovery System (http://www.immunomics.com). This assay provides a method to determine the binding affinity and stability of a test peptide to any of several Class I HLA molecules, using fluorescent-labeled antibody that specifically recognizes HLA only when peptide is bound in the MHC-I groove.
as §1, with “HLA-A*0201 in-vitro” for “HLA-A*0201in-vitro”

HHD mice = experiment: Immunogenicity of additional CEA peptides in HHD mice (Example 9, ICS for IFNγ); type: in vivo; conditions: for fold more immunogenic than the natural peptide: HHD mice, ICS IFNγ; for fold more immunogenic than the natural peptide / immunogenicity (immune response against the natural target epitope): FIG. 7; for immunogenicity (immune response against the natural target epitope): 6 HHD mice, 100 μg peptide s.c., two injections, ICS IFNγ three weeks later
HLA-A*0201 [2] = molecular target: T1, HLA-A*0201; experiment: In vitro cellular binding assay of CEA peptides on TAP-deficient T2 cells (FACS); conditions: 50 μM peptide, 18 hours at 37° C., FIG. 3
Description: To determine the binding ability of EI Suite-selected wild type peptides and analogs, an in vitro cellular binding assay was performed using the TAP-deficient cell line T2. T2 cells are HLA-A*0201 positive, MHC class II negative and TAP deficient, meaning that they lack a functional transporter associated with antigen presentation, so that they accumulate empty unstable class I molecules.
T2 cells were incubated with 50 μM peptide in serum-free RPMI 1640 supplemented with 5 μg/mL human β2m (Fluka) for 18 hours at 37° C. HLA-A*0201 expression was then measured by flow cytometry using the anti-HLA-A2.1 monoclonal antibody (mAb) BB7.2 followed by incubation with fluorescein isothiocyanate (FITC)-conjugated F(ab′)2 goat antimouse Ig (Biosource). The results are expressed as fluorescence index (FI) defined as a ratio (median channel of fluorescence) between the sample and a control without any peptide. An increase over the control of at least […] (FI>2) was arbitrarily chosen as the cutoff point.

HLA-A*0201 [3] = molecular target: T1, HLA-A*0201; experiment: HLA-A*0201/peptide complex stability on T2 cells over time (FACS); type: binding; conditions: 50 μM peptide, 0-8 hours, FIG. 4
Description: To assess the HLA-A*0201/peptide complex stability, T2 cells (10^6/mL) were incubated overnight with 50 μM of each peptide in serum-free RPMI 1640 supplemented with 100 ng/mL human β2m at 37° C. Cells were then washed 4 times to remove free peptides, incubated for 1 hour with 10 ng/mL Brefeldin A (Sigma-Aldrich) to block cell surface expression of newly synthesized HLA-A*0201 molecules, washed, and incubated at 37° C. for 0, 2, 4, 6, or 8 hours. Subsequently, cells were stained with anti-HLA-A2.1 mAb BB7.2. For each time point, peptide-induced HLA-A*0201 expression was calculated as mean fluorescence value of peptide incubated T2 cells/mean fluorescence value T2 cells in the absence of the peptide. Dissociation complex 50 (DC50) was defined as the time required for the loss of 50% of the HLA-A*0201/peptide complexes stabilized at t=0.
Binding stability of the peptide-MHC complex was also evaluated over time. The CAP-1 peptide was used as positive control.

[4] = molecular target: T2, HLA-A*0201 (iTopia Epitope Discovery System) (human); experiment: iTopia Epitope Discovery System binding assay
T2 construct: Commercial in vitro assay; also called Class I HLA molecule
From the text: This assay provides a method to determine the binding affinity and stability of a test peptide to any of several Class I HLA molecules, using fluorescent-labeled antibody that specifically recognizes HLA only when peptide is bound in the MHC-I groove.

HLA-A*0201 on T2 cells [5] = molecular target: T3, HLA-A*0201 on T2 cells (human); experiment: T2 cells, 50 uM peptide, surface HLA-A2 by FACS with BB7.2
T3 construct: Empty class I molecule on T2 cells; also called HLA-A2.1; A2.1

HLA-A*0201 on T2 cells [6] = molecular target: T3, HLA-A*0201 on T2 cells; experiment: assay not named there (T2 cell binding per paragraph 90)
Description: T2 cells were incubated with 50 μM peptide in serum-free RPMI 1640 supplemented with 5 μg/mL human β2m (Fluka) for 18 hours at 37° C. […] The results are expressed as fluorescence index (FI) defined as a ratio (median channel of fluorescence) between the sample and a control without any peptide. An increase over the control of at least 65% (FI>2) was arbitrarily chosen as the cutoff point.

## 540.V9: hTERT position 540 9-mer V9 analog of ILAKFLHWL, SEQ ID NO 15 (ILAKFLHWV)
HLA-A*0201 [1]
  binding affinity to HLA-A*0201 compared to the corresponding wild type peptide: increase in binding affinity

## 540.V10: hTERT position 540 10-mer V10 analog of ILAKFLHWLM, SEQ ID NO 17 (ILAKFLHWLV)
HLA-A*0201 [1]
  binding affinity to HLA-A*0201 compared to the corresponding wild type peptide: increase in binding affinity

## 688.L2: hTERT position 688 10-mer L2 analog of RAWRTFVLRV, SEQ ID NO 20 (RLWRTFVLRV)
HLA-A*0201 [1]
  binding affinity to HLA-A*0201 compared to the corresponding wild type peptide: increase in binding affinity

## ALVGIMIGV [CEA687L2]
HHD mice
  fold more immunogenic than the natural peptide: about 3.4 fold
HHD mice; groups of 6 HHD mice
  mice responded to the treatment: 100%

## ATVGIMIGV [CEA687]
HHD mice
  immunogenicity (immune response against the natural target epitope): significantly immunogenic
HHD mice; groups of 6 HHD mice
  mice responding to the vaccination: 4 out of 6

## GLMIGVLVGV (Anchor-modified analog) [690L2]
HLA-A*0201 [2]
  binding to HLA-A*0201 compared to wild-type counterpart: marked increase of binding

## GLNRTTVTTV (Anchor-modified analog) [307V10]
HLA-A*0201 [2]
  binding to HLA-A*0201 compared to wild-type counterpart: marked increase of binding

## GLSAGATVGV (Anchor-modified analog) [682V10]
HLA-A*0201 [2]
  binding to HLA-A*0201 compared to wild-type counterpart: marked increase of binding
HLA-A*0201 [3]
  stability of peptide-MHC complex compared to wild-type counterpart: improved stability

## IMIGVLVGV [CEA691]
HHD mice
  immunogenicity (immune response against the natural target epitope): immunogenic

## RLTVTTITV (Anchor-modified analog) [CEA310L2]
HHD mice
  immunogenicity (immune response against the natural target epitope): extremely powerful in eliciting a cross reactive immune response
  fold more immunogenic than the natural peptide: 123 fold

## VLYGPDDPTV (Anchor-modified analog) [411V10]
HLA-A*0201 [2]
  binding to HLA-A*0201 compared to wild-type counterpart: marked increase of binding
HLA-A*0201 [3]
  stability of peptide-MHC complex compared to wild-type counterpart: improved stability

B1: hTERT position 540, 9-mer, w.t. (ILAKFLHWL) (peptide)
peptide: ILAKFLHWL
notes: Fragment of hTERT (SwissProt O14746, printed); The range is worked out from the printed position and length
[4]
  binding affinity (% of positive control): 30 % of the positive control

## ILAKFLHWV (type V9) [hTERT 540.V9 analog]
[4]
  binding result: binds

B2: hTERT position 540, 10-mer, w.t. (ILAKFLHWLM) (peptide)
peptide: ILAKFLHWLM
notes: Fragment of hTERT (SwissProt O14746, printed)
[4]
  binding affinity (% of positive control): 30 % of the positive control

B3: hTERT position 544, 10-mer, w.t. (FLHWLMSVYV) (peptide)
peptide: FLHWLMSVYV
notes: as for B1
[4]
  binding affinity (% of positive control): 30 % of the positive control

B4: hTERT position 688, 10-mer, w.t. (RAWRTFVLRV) (peptide)
peptide: RAWRTFVLRV
notes: as for B1
[4]
  binding affinity (% of positive control): 30 % of the positive control

B5: hTERT position 865, 9-mer, w.t. (RLVDDFLLV) (peptide)
peptide: RLVDDFLLV
notes: as for B1
[4]
  binding affinity (% of positive control): 30 % of the positive control

## FLVDDFLLV (type F1) [hTERT 865.F1 analog]
[4]
  binding result: binds

B6: hTERT.934, 9-mer, w.t. (LLDTRTLEV) (peptide)
peptide: LLDTRTLEV
notes: as for B1
[4]
  binding affinity (% of positive control): 30 % of the positive control

B7: hTERT position 986, 9-mer, w.t. (FLDLQVNSL) (peptide)
peptide: FLDLQVNSL
notes: as for B1
[4]
  binding affinity (% of positive control): 30 % of the positive control

B8: CEA.690L2 (GLMIGVLVGV) (peptide)
peptide: GLMIGVLVGV
notes: Anchor-modified analog of a CEA peptide; leucine at position 2
HLA-A*0201 on T2 cells [5]
  binding result: binds

## IMIGVLVGV (Wild type CEA 9-mer) [CEA.691 (IMIGVLVGV)]
HLA-A*0201 on T2 cells [6]
  binding result: binds

## VLYGPDTPIV (Anchor-modified analog of a CEA peptide) [CEA.589V10 (VLYGPDTPIV)]
HLA-A*0201 on T2 cells [5]
  binding result: binds

## GLSAGATVGV (Anchor-modified analog of a CEA peptide) [CEA.682V10 (GLSAGATVGV)]
HLA-A*0201 on T2 cells [5]
  binding result: binds

## GLNRTTVTTV (Anchor-modified analog of a CEA peptide) [CEA.307V10 (GLNRTTVTTV)]
HLA-A*0201 on T2 cells [5]
  binding result: binds

B9: hTERT position 30, 9-mer, w.t. (RLGPQGWRL) (peptide)
peptide: RLGPQGWRL
notes: as for B1
[4]
  binding affinity (% of positive control): 30 % of the positive control
